Assay results reported in patent publication US20090053233A1 (LABORATOIRE FRANCAIS DU FRACTIONNEMENT ET DES …, published 2009).
Where a chain is given by its changes, count along the chain named. Blank lines part the entries; values can stand above or below the binder they belong to.

Legend:
[1] = molecular target: T1, CD20 antigen expressed on Raji cells (UniProt P11836 1-297, limits assumed); assay: flow cytometry competition on Raji cells; competitor CAT-13.6E12 detected with PE anti-mouse IgG
T1 construct: whole, on cells; Raji is a human B cell line
T1 sequence (looked up): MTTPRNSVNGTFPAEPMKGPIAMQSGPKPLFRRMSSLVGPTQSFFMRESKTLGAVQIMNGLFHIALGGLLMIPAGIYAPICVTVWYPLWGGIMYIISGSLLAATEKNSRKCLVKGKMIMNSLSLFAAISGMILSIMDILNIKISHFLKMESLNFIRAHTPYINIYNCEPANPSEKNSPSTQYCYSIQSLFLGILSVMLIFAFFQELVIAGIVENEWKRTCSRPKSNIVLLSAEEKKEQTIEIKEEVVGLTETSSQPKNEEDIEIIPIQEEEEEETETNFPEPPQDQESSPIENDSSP

[2] = molecular target: CD16 (FcγRIIIA) receptor expressed on Jurkat-CD16 cells (human, UniProt P08637 17-208); assay: cell-based or functional assay
[3] = molecular target: T1, CD20 antigen expressed on Raji cells; assay: specificity study, as for EMAB6 (competition with CAT-13.6E12 on Raji cells); no details given

Chain of CD16 (FcγRIIIA) receptor expressed on Jurkat-CD16 cells (P08637 17-208): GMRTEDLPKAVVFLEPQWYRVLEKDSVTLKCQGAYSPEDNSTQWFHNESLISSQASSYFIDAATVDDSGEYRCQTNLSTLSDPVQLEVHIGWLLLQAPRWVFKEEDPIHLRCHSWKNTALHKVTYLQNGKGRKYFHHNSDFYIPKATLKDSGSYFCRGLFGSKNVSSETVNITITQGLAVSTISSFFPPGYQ

binding result [1]: binds | Rituxan® EC50/EMAB6 EC50 ratio, IL-2 secretion by Jurkat-CD16 cells in the presence of Raji cells [2]: ~15 ratio
B1: anti-CD20 chimeric antibody EMAB6 produced by clone R509 (YB2/0 cell line) (antibody, human IgG1, kappa)
heavy: not shown
light: QIVLSQSPAILSASPGEKVTMTCRASSSVSYMHWYQQKPGSSPKPWIYATSNLASGVPARFSGSGSGTSYSFTISRVEAEDAATYYCQQWTFNPPTFGGGTRLEINRTVAAPSVFIFPPSDEQLKSGTASVVCLLNNFYPREAKVQWKVDNALQSGNSQESVTEQDSKDSTYSLSSTLTLSKADYEKHKVYACEVTHQGLSSPVTKSFNRGEC
notes: Murine-human chimeric IgG1 kappa (murine CAT-13.6E12 variable regions, human gamma1 and kappa constant regions), produced in rat YB2/0 cells, low fucose; The cloned V fragments carry the natural signal peptide; also called chimeric EMAB6 antibody; AMAB6

binding result [3]: binds
B2: anti-CD20 chimeric antibody EMAB603 produced by clone R603 (YB2/0 cell line) (antibody, human IgG1, kappa)
heavy: not shown
light: B1 light with N106K
notes: Murine-human chimeric IgG1 kappa; Produced in rat YB2/0 cells; also called chimeric EMAB603 antibody; EMBA603
